Experimental data published in publication PMC7730851, “Expression of Somatostatin Receptor Subtypes (SSTR-1–SSTR-5) in Pediatric Hematological and Oncological Disorders” (Molecules, 2020).

Tested on: somatostatin receptors (SSTR)
Test: Displacement of [125I]RC-160 binding from membranes of human pediatric tumors by unlabeled peptides
Method: Receptor binding affinities and concentrations of SSTRs in tumor membranes were also studied. […] Biochemical specifications and parameters crucial to characterize specific binding sites were also defined. […] Various peptides structurally related or unrelated to SST were used in these studies.
Displacement of [^125I] RC-160 as a radioligand by the unlabeled SST analogs as competitor was determined.
The radioiodinated derivatives of the RC-160 SST analogue were prepared by the chloramine-T method and purified by reverse phase high-performance liquid chromatography (RP-HPLC) as described previously. Somatostatin receptor-binding assays were performed as described previously with some minor modifications, using in vitro ligand competition assays based on the binding of [^125I] RC-160 as a radioligand to membrane fractions of the pediatric samples. This radioiodinated ligand has been well characterized and reported previously and has high affinity for SSTR-2 and SSTR-5 [4]. […] After incubation for 2 h, the binding reactions were stopped, and the bound ligand was separated and counted in a gamma counter. […] The final binding affinities were expressed as IC50 values. Protein concentration was determined by the method of Bradford using a Bio-Rad protein assay kit (Bio-Rad Laboratories, Inc.).

B1: epidermal growth factor (EGF): unrelated peptide used as specificity control (protein, UniProt P01133 23-1207, looked up)
Pro-epidermal growth factor: PQHWSCPEGTLAGNGNSTCVGPAPFLIFSHGNSIFRIDTEGTNYEQLVVDAGVSVIMDFHYNEKRIYWVDLERQLLQRVFLNGSRQERVCNIEKNVSGMAINWINEEVIWSNQQEGIITVTDMKGNNSHILLSALKYPANVAVDPVERFIFWSSEVAGSLYRADLDGVGVKALLETSEKITAVSLDVLDKRLFWIQYNREGSNSLICSCDYDGGSVHISKHPTQHNLFAMSLFGDRIFYSTWKMKTIWIANKHTGKDMVRINLHSSFVPLGELKVVHPLAQPKAEDDTWEPEQKLCKLRKGNCSSTVCGQDLQSHLCMCAEGYALSRDRKYCEDVNECAFWNHGCTLGCKNTPGSYYCTCPVGFVLLPDGKRCHQLVSCPRNVSECSHDCVLTSEGPLCFCPEGSVLERDGKTCSGCSSPDNGGCSQLCVPLSPVSWECDCFPGYDLQLDEKSCAASGPQPFLLFANSQDIRHMHFDGTDYGTLLSQQMGMVYALDHDPVENKIYFAHTALKWIERANMDGSQRERLIEEGVDVPEGLAVDWIGRRFYWTDRGKSLIGRSDLNGKRSKIITKENISQPRGIAVHPMAKRLFWTDTGINPRIESSSLQGLGRLVIASSDLIWPSGITIDFLTDKLYWCDAKQSVIEMANLDGSKRRRLTQNDVGHPFAVAVFEDYVWFSDWAMPSVMRVNKRTGKDRVRLQGSMLKPSSLVVVHPLAKPGADPCLYQNGGCEHICKKRLGTAWCSCREGFMKASDGKTCLALDGHQLLAGGEVDLKNQVTPLDILSKTRVSEDNITESQHMLVAEIMVSDQDDCAPVGCSMYARCISEGEDATCQCLKGFAGDGKLCSDIDECEMGVPVCPPASSKCINTEGGYVCRCSEGYQGDGIHCLDIDECQLGEHSCGENASCTNTEGGYTCMCAGRLSEPGLICPDSTPPPHLREDDHHYSVRNSDSECPLSHDGYCLHDGVCMYIEALDKYACNCVVGYIGERCQYRDLKWWELRHAGHGQQQKVIVVAVCVVVLVMLLLLSLWGAHYYRTQKLLSKNPKNPYEESSRDVRSRRPADTEDGMSSCPQPWFVVIKEHQDLKNGGQPVAGEDGQAADGSMQPTSWRQEPQLCGMGTEQGCWIPVSSDKGSCPQVMERSFHMPSYGTQTLEGGVEKPHSLLSANPLWQQRALDPPHQMELTQ
modifications: Pro-epidermal growth factor
notes: unrelated peptide used as specificity control
displacement of [125I]RC-160 binding (membrane fractions of human rhabdomyosarcoma specimen, Figure 3): did not displace | inhibition/displacement of the binding of radioiodinated RC-160 (pediatric tumor membranes, competitor 10^-12-10^-6 M, concentrations as high as 1 µM): none
